Results on ten molecules are retold here after patent US20110002926A1 (MEDICAL RESEARCH COUNCIL, published 2011).

Changes are numbered by the printed parent chain. Like-named read-outs stand apart in the source and are kept apart here. Where no end group is shown, it is not given here.

The target in experiment [1] is HCV E1E2 glycoproteins of genotype 2a JFH1 on HCVpp (Hepatitis C virus genotype 2a, UniProt Q99IB8 384-750; Q99IB8 192-383). Description: cell-based or functional assay.
For experiment [2], the target named is HCV E1E2 glycoproteins of genotype 3a F4/2-35 on HCVpp (Hepatitis C virus genotype 3a). Description: cell-based or functional assay.
For experiment [3], the target named is HCV E1E2 glycoproteins of isolate 2A2.4 on HCVpp (Hepatitis C virus genotype 2). The experiment in a line: cell-based or functional assay.
Experiment [4] concerns the target HCV E1E2 glycoproteins of isolate 4.21.16 on HCVpp (Hepatitis C virus genotype 4). The experiment in a line: cell-based or functional assay.
In experiment [5] the target is HCV E1E2 glycoproteins of isolate 6.5.8 on HCVpp (Hepatitis C virus genotype 6). Description: cell-based or functional assay.
For experiment [6], the target named is HCV E1E2 glycoproteins of isolate 1A20.8 on HCVpp (Hepatitis C virus genotype 1). The experiment in a line: cell-based or functional assay.
Experiment [7] deals with HCV E1E2 glycoproteins of isolate 1B5.23 on HCVpp (Hepatitis C virus genotype 1). Description: cell-based or functional assay.
Experiment [8] concerns the target HCV E1E2 glycoproteins of isolate 2B1.1 on HCVpp (Hepatitis C virus genotype 2). The experiment in a line: cell-based or functional assay.
Experiment [9] addresses HCV E1E2 glycoproteins of isolate 5.15.11 on HCVpp (Hepatitis C virus genotype 5). Description: cell-based or functional assay.
Experiment [10] deals with T1, Peptide D3 (also: C-terminal linker GSGK-biotin, biotin attachment not given here).
T1 peptide: QLINTNGSWHINGSGK
The experiment in a line: peptide ELISA, signal as percent of maximum H6 binding. (In general: ELISA stands for enzyme-linked immunosorbent assay.)

Experiment [11] addresses T1, Peptide D3. Description: peptide ELISA, biotinylated peptide on streptavidin, COS7 supernatant, OD 655 nm.
In experiment [12] the target is T2, peptide H6 (AP33 mimotope) (not fully specified (residue 16, C-terminus); printed as VELRNLGGTWRPGSGK-biotin; also: biotin at C-terminal GSGK, site not given here).
T2 construct: Mimotope for AP33 identified by phage display; captured on streptavidin plates; also called mimotope H6; H6 mimotope
T2 peptide: VELRNLGGTWRPGSGK
Described as above.

Experiment [13] has as its target T3, E2 peptide B1 (not fully specified (residue 16, C-terminus); also: biotin at C-terminal GSGK, site not given here).
T3 peptide: NLINTNGSWHINGSGK
The description is as above.

Experiment [14] concerns the target T3, E2 peptide B1. The experiment in a line: peptide ELISA, signal as percent of maximum H6 binding.
For experiment [15], the target named is T2, peptide H6 (AP33 mimotope). Description: peptide ELISA, biotinylated peptide on streptavidin, COS7 supernatant, OD 655 nm.
Experiment [16] concerns the target T1, Peptide D3. The experiment is described as above.
For experiment [17], the target named is T2, peptide H6 (AP33 mimotope). Described as above.
In experiment [18] the target is T1, Peptide D3. The description is as above.
In experiment [19] the target is T2, peptide H6 (AP33 mimotope). Described as above.
Experiment [20] deals with T3, E2 peptide B1. Described as above.
Experiment [21] deals with T3, E2 peptide B1. The description is as above.
In experiment [22] the target is T2, peptide H6 (AP33 mimotope). The description is as above.
Experiment [23] has as its target T3, E2 peptide B1. The experiment is described as above.
Experiment [24] has as its target T1, Peptide D3. Described as above.
Experiment [25] deals with T2, peptide H6 (AP33 mimotope). The description is as above.
In experiment [26] the target is T3, E2 peptide B1. The experiment is described as above.
For experiment [27], the target named is T3, E2 peptide B1. Described as above.
In experiment [28] the target is T3, E2 peptide B1. Described as above.
The target in experiment [29] is T1, Peptide D3. The description is as above.
Experiment [30] deals with T2, peptide H6 (AP33 mimotope). The description is as above.

Sequence of HCV E1E2 glycoproteins of genotype 2a JFH1 on HCVpp (Q99IB8 384-750 limits assumed, chain 1 of 2): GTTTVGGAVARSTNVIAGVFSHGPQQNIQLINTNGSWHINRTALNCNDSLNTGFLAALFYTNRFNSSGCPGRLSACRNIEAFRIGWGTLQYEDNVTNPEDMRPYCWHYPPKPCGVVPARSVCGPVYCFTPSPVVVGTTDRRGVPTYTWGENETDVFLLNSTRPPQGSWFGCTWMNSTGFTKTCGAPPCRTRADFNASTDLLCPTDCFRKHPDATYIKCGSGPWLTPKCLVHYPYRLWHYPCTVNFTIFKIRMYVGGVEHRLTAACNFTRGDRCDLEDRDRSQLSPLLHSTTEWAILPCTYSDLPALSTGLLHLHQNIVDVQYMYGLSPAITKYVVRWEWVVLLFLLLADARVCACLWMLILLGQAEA
Sequence of HCV E1E2 glycoproteins of genotype 2a JFH1 on HCVpp (Q99IB8 192-383 limits assumed, chain 2 of 2): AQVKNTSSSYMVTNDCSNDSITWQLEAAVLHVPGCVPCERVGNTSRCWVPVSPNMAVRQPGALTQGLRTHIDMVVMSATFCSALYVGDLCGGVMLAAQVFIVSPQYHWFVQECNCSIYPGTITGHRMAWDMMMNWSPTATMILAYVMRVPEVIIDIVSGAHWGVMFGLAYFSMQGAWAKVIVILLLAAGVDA

B1: chimeric AP33 antibody (Vh/Vl) (antibody, V domains shown)
VH: EVQLQESGPSLVKPSQTLSLTCSVTGDSITSGYWNWIRKFPGNKLEYMGYISYSGSTYYNLSLRSRISITRDTSKNQYYLQLNSVTTEDTATYYCALITTTTYAMDYWGQGTSVTVS
VL: NIVLTQSPVSLAVSLGQRATISCRASESVDGYGNSFLHWFQQKPGQPPKLLIYLASNLNSGVPARFSGSGSRTDFTLTIDPVEADDAATYYCQQNNVDPWTFGGGTKLEIK
notes: also called chimeric antibody
A word on the EC50 (read off the curve): it is the concentration at which the effect is half-maximal. A high value points to a need for much substance. B1: the “IC50 of HCVpp infection of Huh-7 cells (luciferase)” value is 1.1 µg/mL in experiment [1]; 0.48 µg/mL in experiment [2]; 0.88 µg/mL in [3]; under 0.137 µg/mL in experiment [4]; under 0.137 µg/mL in experiment [5]; 1.1 µg/mL in experiment [6]. In addition, the “IC50 of HCVpp infection of Huh-7 cells (luciferase)” value in [7] was 1.15 µg/mL; in experiment [8] it was 3 µg/mL; in experiment [9], 0.088 µg/mL. The “IC90 of HCVpp infection of Huh-7 cells (luciferase)” value in experiment [1] was found to be 9.31 µg/mL; in experiment [2], 3.2 µg/mL; in [3], 6.67 µg/mL; in [4], 0.83 µg/mL; in experiment [5] it was 3.7 µg/mL; in experiment [6] it was 11.5 µg/mL. Also, the “IC90 of HCVpp infection of Huh-7 cells (luciferase)” value in [7] is 11 µg/mL; in [8], over 15 µg/mL; in experiment [9], 1.11 µg/mL. In the experiment with Peptide D3 [10], the “EC50 (read off the curve)” value is about 0.02 µg/mL.

B2: RHb-h/Vl (humanized heavy chain RHb-h with chimeric AP33 light chain) (antibody, V domains shown)
VH: QVQLQESGPGLVKPSETLSLTCTVSGDSITSGYWNWIRQPPGRALEYMGYISYSGSTYYNLSLRSRITISRDTSKNQYSLRLSSVTAADTAMYYCALITTTTYAMDYWGQGTTVTVS
VL: B1 VL
notes: also called RHb-h/V1; the humanized heavy chain
For B2, the “EC50 (read off the curve)” value (with Peptide D3 [11]; in experiment [12]) was about 0.02 µg/mL each time. The binding result in the experiment with E2 peptide B1 [13] was “no binding (tested: about 500 ng/ml)”.

B3: humanized AP33 antibody RHb-h/RK2bc (antibody, V domains shown)
VH: B2 VH
VL: EIVLTQSPSSLSASVGDRVTITCRASESVDGYGNSFLHWFQQKPGKAPKLLIYLASNLNSGVPSRFSGSGSRTDFTLTISSLQPEDFATYYCQQNNVDPWTFGQGTKLEIK
notes: also called RHbcdefgh/RK2bc; RHb-h standard
For the molecule B3, the binding result with E2 peptide B1 [14] is “no binding (tested: at least about 500 ng/ml)”. For the same molecule, the figures for the 50% effective concentration (EC50 (read off the curve)) (in [15]; in the experiment with Peptide D3 [16]; in experiment [17]) were about 0.04 µg/mL, about 0.05 µg/mL and about 0.04 µg/mL, respectively.

B4: humanized AP33 antibody RH-C/RK2bc (antibody, V domains shown)
VH: QVQLQESGPGLVKPSETLSLTCTVSGDSITSGYWNWIRQPPGRALEWMGYISYSGSTYYNLSLRSRITISRDTSKNQYSLRLSSVTAADTAMYYCALITTTTYAMDYWGQGTTVTVSS
VL: B3 VL
notes: also called RH-C (peptide ELISA, paired with RK2bc)
With B4, the results for the “EC50 (read off the curve)” value (with Peptide D3 [18]; in experiment [19]) were about 0.05 µg/mL and about 0.04 µg/mL, respectively. In addition, the binding result with E2 peptide B1 [20] is on record as “no binding (tested: about 2000 ng/ml)”.

B5: AP33 RH-E/RK2bc (antibody, V domains shown)
VH: B2 VH with I67V
VL: B3 VL
Take B5: the binding result in the experiment with E2 peptide B1 [21] was “no binding (tested: about 800 ng/ml)”.

B6: humanized AP33 antibody RH-G/RK2bc (antibody, V domains shown)
VH: B2 VH with Y78F
VL: B3 VL
As for B6, the “EC50 (read off the curve)” value in experiment [22] was about 0.03 µg/mL. Besides, the binding result with E2 peptide B1 [23] is on record as “no binding (tested: about 700 ng/ml)”.

B7: AP33 RH-D/RK2bc (antibody, V domains shown)
VH: B2 VH with M48I
VL: B3 VL
In the case of B7, the “EC50 (read off the curve)” value (with Peptide D3 [24]; in experiment [25]) was about 0.04 µg/mL throughout. For the same molecule, the binding result with E2 peptide B1 [26] is on record as “no binding (tested: about 900 ng/ml)”.

B8: AP33 RH-B/RK2bc (antibody, V domains shown)
VH: B4 VH with T30S, W47Y
VL: B3 VL
Take B8: the binding result in the experiment with E2 peptide B1 [27] is recorded as “no binding (tested: about 800 ng/ml)”.

B9: humanized AP33 antibody RH-F/RK2bc (antibody, V domains shown)
VH: B2 VH with R71V
VL: B3 VL
Take B9: the binding result in the experiment with E2 peptide B1 [28] is “no binding (tested: about 500 ng/ml)”.

B10: humanized AP33 antibody RH-H/RK2bc (antibody, V domains shown)
VH: B2 VH with L97R
VL: B3 VL
notes: also called RH-H (peptide ELISA, paired with RK2bc)
For B10, the binding result in the experiment with E2 peptide B1 [14] is “no binding (tested: at least about 500 ng/ml)”. The “EC50 (read off the curve)” value with Peptide D3 [29] is about 0.04 µg/mL; in experiment [30], about 0.03 µg/mL.
